{"source": "patent US20240383992A1", "about": "(ORICELL THERAPEUTICS, published 2024)", "binders": {"B1": {"name": "hBCMA-17 CAR (other)", "chain": "EIVLTQSPATLSLSPGERATLSCRASESVSVSGIHLLHWYQQKPGQAPRLLIYLGRNRAAGIPARFSGSGSGTDFTLTISSLEPEDAAIYYCLQSRRFPRHFGQGTKLEIKGSTSGSGKPGSGEGSTKGQVQLVQSGAEVKKPGASVKVSCKASGYTFADYTINWVRQATGQGLEWMGWINTETREPTYAYDFRSRFTFTLNTSISTAYLELSSLRSEDTAVYYCARDIRYVMDYWGQGTLVTVSSTTTPAPRPPTPAPTIASQPLSLRPEACRPAAGGAVHTRGLDFACDIYIWAPLAGTCGVLLLSLVITLYCKRGRKKLLYIFKQPFMRPVQTTQEEDGCSCRFPEEEEGGCELRVKFSRSADAPAYQQGQNQLYNELNLGRREEYDVLDKRRGRDPEMGGKPRRKNPQEGLYNELQKDKMAEAYSEIGMKGERRRGKGHDGLYQGLSTATKDTYDALHMQALPPR"}, "B2": {"name": "hBCMA-19 CAR (other)", "chain": "B1 chain with S32P, H35S, L36F, L37I, T188A, S195G"}, "B3": {"name": "hBCMA-22 CAR (other)", "chain": "B1 chain with S32P, H35S, L36F, L37I, R56S, A59P, A60S, T188A, S195G"}, "B4": {"name": "hBCMA-23 CAR (other)", "chain": "B1 chain with S32P, H35S, L36F, L37I, R56S, A59P, A60S"}, "B5": {"name": "hBCMA-20 CAR (other)", "chain": "B1 chain with S32P, H35S, L36F, L37I"}}, "note": "Numbering of substitutions follows the chain as printed."}
{"target": "T1, BCMA expressed on MM1s cells (UniProt Q02223 1-184, limits assumed)", "T1 sequence (looked up)": "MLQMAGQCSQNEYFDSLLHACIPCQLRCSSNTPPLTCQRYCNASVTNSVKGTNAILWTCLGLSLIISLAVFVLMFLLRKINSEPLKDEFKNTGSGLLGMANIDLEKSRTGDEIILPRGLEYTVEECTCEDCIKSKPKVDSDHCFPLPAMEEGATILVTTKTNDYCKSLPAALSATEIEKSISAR", "experiment": "cell-based or functional assay", "units": {"killing toxicity against the target cell at effector-to-target ratio 1:1": "%", "killing toxicity against the target cell at effector-to-target ratio 3:1": "%"}}
{"binder": "B1", "killing toxicity against the target cell at effector-to-target ratio 1:1": "> 20", "killing toxicity against the target cell at effector-to-target ratio 3:1": "> 70"}
{"binder": "B2", "killing toxicity against the target cell at effector-to-target ratio 1:1": "> 20", "killing toxicity against the target cell at effector-to-target ratio 3:1": "> 70"}
{"binder": "B3", "killing toxicity against the target cell at effector-to-target ratio 1:1": "> 20", "killing toxicity against the target cell at effector-to-target ratio 3:1": "> 70"}
{"binder": "B4", "killing toxicity against the target cell at effector-to-target ratio 1:1": "> 20", "killing toxicity against the target cell at effector-to-target ratio 3:1": "> 70"}
{"binder": "B5", "killing toxicity against the target cell at effector-to-target ratio 1:1": "> 20", "killing toxicity against the target cell at effector-to-target ratio 3:1": "> 70"}
